From the supplement of paper PMC6757056
± gives the standard deviation of the averaged measurements.

B1: library; a variant is named by its letters at N, in order (parent)
chain: GCUGUCACCGAGAAACUGUGAAGUAUAUCUUAAACCUGGGCACUUAAAAGAUAUAUGGAGUUAGUAGUGCAACCUGCUCGGUCUGAUGAGUCCNNNNNNGGACGAAACAGC

Assays:
cyclic di-GMP [1] = variants of: B1; assay: normalized RNA/DNA level without ligand (relative to sTRSVctl = 100) (log10 (% of sTRSVctl)); HEK293T; ligand: cyclic di-GMP (c-di-GMP-II aptamer); higher = less ribozyme self-cleavage, higher mRNA level; conditions: reporter: mCherry (pCS4076), ligand present: no
Outline: (§1)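 Total RNA, extracted with EDTA 72 h after HEK293T cells were transfected with 4 µg per 6-well well of reporter-linked ribozyme switch library plasmids, was reverse-transcribed, amplified, barcoded and sequenced. Ligand, if used, was added 1 h before transfection. RNA level was derived from RNA reads divided by DNA reads and normalized to a spiked-in non-cleaving sequence or to the top sequences. This was multiplied by 100 and log10-transformed, with the top set of 25 sequences and a ≥100 DNA read minimum.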

cyclic di-GMP [2] = variants of: B1; assay: normalized RNA/DNA level with ligand (relative to sTRSVctl = 100) (log10 (% of sTRSVctl)); HEK293T; ligand: cyclic di-GMP (c-di-GMP-II aptamer); ligand concentration (+) RNA-Seq: 1 mM; higher = less ribozyme self-cleavage, higher mRNA level; conditions: reporter: mCherry (pCS4076), ligand present: yes
Outline: as §1

| Variant | normalized RNA/DNA level without ligand (log10) (cyclic di-GMP [1]) | normalized RNA/DNA level with ligand (log10) (cyclic di-GMP [2]) |
| --- | --- | --- |
| UUGGUA | 1.45 ± 0.084 | 1.73 ± 0.11 |
| CAUAUC | 1.63 ± 0.069 | 1.79 ± 0.047 |
| UUGUCU | 1.8 ± 0.03 | 1.92 ± 0.086 |
| ACGCGC | 1.629 ± 0.016 | 1.79 ± 0.11 |
| CUCGCG | 1.857 ± 0.014 | 1.91 ± 0.039 |
| UGCCUC | 1.77 ± 0.072 | 1.9 ± 0.15 |
| GCUCGA | 1.57 ± 0.04 | 1.73 ± 0.099 |
| UGAGGG | 1.63 ± 0.045 | 1.79 ± 0.083 |
| CAGAUG | 1.63 ± 0.0074 | 1.75 ± 0.13 |
| AAGCGU | 1.56 ± 0.021 | 1.73 ± 0.11 |
| CCAGCU | 1.682 ± 0.011 | 1.86 ± 0.084 |
| GCACGC | 1.66 ± 0.027 | 1.78 ± 0.2 |
| AGGGCC | 1.84 ± 0.052 | 1.93 ± 0.068 |
| GAACUG | 1.66 ± 0.059 | 1.75 ± 0.089 |
| UCAUAA | 1.47 ± 0.065 | 1.67 ± 0.087 |
| UCAUAC | 1.674 ± 0.011 | 1.81 ± 0.11 |
| CGAGCC | 1.824 ± 0.0092 | 1.88 ± 0.083 |
| UACAAG | 1.69 ± 0.02 | 1.8 ± 0.12 |
| CAGUCG | 1.76 ± 0.067 | 1.9 ± 0.12 |
| CUUUUG | 1.796 ± 0.016 | 1.92 ± 0.13 |
| CUAACA | 1.662 ± 0.0013 | 1.78 ± 0.09 |
| UGACGA | 1.595 ± 0.015 | 1.78 ± 0.091 |
| GUUGGA | 1.56 ± 0.097 | 1.72 ± 0.077 |

| Variant | normalized RNA/DNA level without ligand (log10) (cyclic di-GMP [1]) | normalized RNA/DNA level with ligand (log10) (cyclic di-GMP [2]) |
| --- | --- | --- |
| GUAGUU | 1.61 ± 0.043 | 1.75 ± 0.061 |
| GGGUGC | 1.749 ± 0.006 | 1.85 ± 0.093 |
| UUACCG | 1.8 ± 0.035 | 1.88 ± 0.11 |
| CACGUC | 1.73 ± 0.075 | 1.87 ± 0.11 |
| AUCCAC | 1.718 ± 0.016 | 1.85 ± 0.088 |
| UGCGGU | 1.63 ± 0.035 | 1.8 ± 0.12 |
| UGCUAG | 1.71 ± 0.031 | 1.9 ± 0.048 |
| GGUUCU | 1.66 ± 0.044 | 1.77 ± 0.083 |
| CUAUAC | 1.696 ± 0.016 | 1.83 ± 0.1 |
| CCCAAU | 1.55 ± 0.066 | 1.77 ± 0.11 |
| CGUCUG | 1.727 ± 0.015 | 1.83 ± 0.064 |
| UGCCAA | 1.689 ± 0.0043 | 1.83 ± 0.12 |
| UGUAAG | 1.73 ± 0.022 | 1.84 ± 0.089 |
| AUCUGU | 1.731 ± 0.012 | 1.88 ± 0.15 |
| CAGGCA | 1.615 ± 0.0084 | 1.71 ± 0.13 |
| UGUAGC | 1.73 ± 0.043 | 1.83 ± 0.15 |
| UACUUC | 1.763 ± 0.0059 | 1.87 ± 0.12 |
| UUAGCU | 1.775 ± 0.0051 | 1.89 ± 0.062 |
| UUAACU | 1.77 ± 0.02 | 1.87 ± 0.071 |
| UAACCG | 1.72 ± 0.12 | 1.81 ± 0.13 |
| CGAGAG | 1.72 ± 0.022 | 1.84 ± 0.033 |
| UACAUA | 1.712 ± 0.017 | 1.86 ± 0.065 |
| UACAUC | 1.64 ± 0.037 | 1.81 ± 0.13 |

| Variant | normalized RNA/DNA level without ligand (log10) (cyclic di-GMP [1]) | normalized RNA/DNA level with ligand (log10) (cyclic di-GMP [2]) |
| --- | --- | --- |
| GGCAAG | 1.55 ± 0.019 | 1.74 ± 0.15 |
| CUACCC | 1.76 ± 0.046 | 1.88 ± 0.1 |
| UCCGUA | 1.51 ± 0.1 | 1.7 ± 0.084 |
| AAGACU | 1.66 ± 0.019 | 1.84 ± 0.057 |
| AGUUGC | 1.67 ± 0.029 | 1.82 ± 0.12 |
| CGAUCG | 1.8 ± 0.04 | 1.87 ± 0.1 |
| AGCUCC | 1.81 ± 0.019 | 1.88 ± 0.089 |
| UUCUUU | 1.74 ± 0.024 | 1.9 ± 0.081 |
| CGCACC | 1.7 ± 0.031 | 1.83 ± 0.12 |
| UGUACA | 1.778 ± 0.0071 | 1.88 ± 0.095 |
| AUGCUG | 1.68 ± 0.028 | 1.83 ± 0.074 |
| CGGAGU | 1.63 ± 0.03 | 1.8 ± 0.1 |
| CCAUAC | 1.632 ± 0.0016 | 1.78 ± 0.075 |
| UACCCG | 1.766 ± 0.014 | 1.9 ± 0.063 |
| CGGAAC | 1.45 ± 0.077 | 1.62 ± 0.14 |
| CUUCCG | 1.761 ± 0.017 | 1.89 ± 0.1 |
| CCUGGG | 1.72 ± 0.018 | 1.82 ± 0.18 |
| GUGGGC | 1.44 ± 0.058 | 1.68 ± 0.13 |
| UAAGCG | 1.75 ± 0.023 | 1.86 ± 0.089 |
| ACGCUU | 1.37 ± 0.076 | 1.6 ± 0.17 |
| ACGCUA | 1.53 ± 0.026 | 1.72 ± 0.13 |
| AGUUCU | 1.69 ± 0.027 | 1.87 ± 0.056 |
| CGUUGA | 1.52 ± 0.043 | 1.71 ± 0.14 |

| Variant | normalized RNA/DNA level without ligand (log10) (cyclic di-GMP [1]) | normalized RNA/DNA level with ligand (log10) (cyclic di-GMP [2]) |
| --- | --- | --- |
| UCCUCU | 1.74 ± 0.06 | 1.87 ± 0.13 |
| GAAGGC | 1.62 ± 0.023 | 1.79 ± 0.13 |
| GGAGUC | 1.55 ± 0.046 | 1.79 ± 0.051 |
| GAGGCC | 1.7859 ± 0.0011 | 1.89 ± 0.048 |
| GUACCA | 1.68 ± 0.044 | 1.81 ± 0.13 |
| GAGCAU | 1.83 ± 0.037 | 1.91 ± 0.11 |
| AGGAAC | 1.54 ± 0.12 | 1.68 ± 0.12 |
| CUGUGC | 1.739 ± 0.013 | 1.85 ± 0.095 |
| GGCAGC | 1.716 ± 0.013 | 1.82 ± 0.081 |
| AUGGCU | 1.75 ± 0.031 | 1.86 ± 0.15 |
| ACAGCA | 1.66 ± 0.046 | 1.75 ± 0.095 |
| UCGACU | 1.6114 ± 7.1e-07 | 1.82 ± 0.12 |
| UCCAUG | 1.67 ± 0.021 | 1.85 ± 0.15 |
| UCUCAC | 1.78 ± 0.018 | 1.87 ± 0.066 |
| UUGCCU | 1.746 ± 0.0023 | 1.89 ± 0.091 |
| UAGCUA | 1.71 ± 0.038 | 1.82 ± 0.12 |
| UGCUGC | 1.76 ± 0.025 | 1.92 ± 0.1 |
| GGUCCC | 1.83 ± 0.045 | 1.92 ± 0.11 |
| UAUGCC | 1.81 ± 0.042 | 1.91 ± 0.15 |
| UAUGCU | 1.72 ± 0.043 | 1.86 ± 0.11 |
| ACACAA | 1.41 ± 0.056 | 1.66 ± 0.16 |
| AAUUUC | 1.721 ± 0.0067 | 1.87 ± 0.08 |
| GAACAC | 1.641 ± 0.014 | 1.78 ± 0.1 |

| Variant | normalized RNA/DNA level without ligand (log10) (cyclic di-GMP [1]) | normalized RNA/DNA level with ligand (log10) (cyclic di-GMP [2]) |
| --- | --- | --- |
| GAGCCC | 1.81 ± 0.1 | 1.92 ± 0.16 |
| CAAGCA | 1.63 ± 0.035 | 1.76 ± 0.11 |
| AUAUUU | 1.67 ± 0.018 | 1.84 ± 0.11 |
| AUAUUA | 1.56 ± 0.05 | 1.76 ± 0.057 |
| CGUGGU | 1.74 ± 0.021 | 1.87 ± 0.076 |
| UGGUUC | 1.7 ± 0.033 | 1.83 ± 0.12 |
| CCACGC | 1.66 ± 0.022 | 1.83 ± 0.12 |
| AAGUAU | 1.62 ± 0.032 | 1.8 ± 0.095 |
| CGCUUG | 1.73 ± 0.043 | 1.88 ± 0.055 |
| ACUGAG | 1.54 ± 0.11 | 1.71 ± 0.031 |
| GCGGCC | 1.73 ± 0.039 | 1.86 ± 0.15 |
| CCAACU | 1.56 ± 0.0039 | 1.75 ± 0.15 |
| UACUGU | 1.6108 ± 0.00033 | 1.79 ± 0.15 |
| UUCGCA | 1.787 ± 0.014 | 1.9 ± 0.049 |
| UGUCGA | 1.76 ± 0.033 | 1.81 ± 0.14 |
| CAACAC | 1.58 ± 0.028 | 1.77 ± 0.12 |
| GUUGCC | 1.76 ± 0.013 | 1.87 ± 0.1 |
| UGCUUG | 1.74 ± 0.06 | 1.88 ± 0.14 |
| CAUCUG | 1.76 ± 0.073 | 1.88 ± 0.13 |
| CACCCG | 1.81 ± 0.025 | 1.94 ± 0.12 |
| GCCAGC | 1.67 ± 0.064 | 1.83 ± 0.18 |
| CAAGAC | 1.64 ± 0.06 | 1.8 ± 0.082 |
| AUCAUU | 1.695 ± 0.0081 | 1.79 ± 0.12 |
